Measured values from the Human Domainome abundance scans (Beltran et al. 2025).

B1: Homeobox protein cut-like 1, residues 941 to 1008; numbered along this chain, P39880 (parent)
chain: QEVDTIELTRQVKEKLAKNGICQRIFGEKVLGLSQGSVSDMLSRPKPWSKLTQKGREPFIRMQLWLNG

Variants of: B1
Test: abundance fitness (aPCA) (normalised: wild type 0, dead -1); higher = more abundant; growth selection in yeast, the domain comes from the species named
Conditions: Homo sapiens

Abundance fitness: each site, then its substitutions
R44: F -0.041; D 0.12; N 0.054; Y -0.029; H -0.125; E -0.176; P -0.314; I -0.189; K 0.098; Q -0.241; G -0.118; A 0; V -0.175; C -0.007
M41: P -0.289; F 0.003; G -0.239; S -0.263; W 0.022; K -0.089; I -0.016; Q -0.171; A 0.023; D -0.194; Y -0.011; L 0.027; C 0.009; V -0.007; T -0.107; N -0.275; H -0.291; E -0.335
L33: E -0.262; V 0.025; W -0.115; P -0.49; I 0.144; F -0.134; M -0.045; T -0.06; A -0.079; G -0.219; Y -0.229; H -0.174; R -0.213; K -0.092; Q -0.232
S43: Q 0.029; M 0.079; W -0.407; C -0.153; R -0.125; Y -0.174; G -0.251; H 0.049; L -0.139; V -0.064; K -0.028; A 0.007; T -0.01; N 0.066; P -0.304; I -0.187; F -0.373; E 0.014
L31: V -0.242; G -0.256; D -0.425; W -0.138; R -0.15; M -0.191; E -0.486; Y -0.351; F -0.11; K -0.233; H -0.313; P -0.233; T -0.393; C -0.255; N -0.319; I -0.278; A -0.273
G27: R -0.177; T -0.201; A 0.1; D -0.545; S -0.008; Q -0.314; Y -0.144; C -0.019; K -0.137; W -0.569; M -0.208; V -0.231; E -0.131; L -0.12; H -0.184; F -0.086; I -0.067
F26: Q -0.721; V -0.648; W 0.03; S -0.704; K -0.45; P -0.574; I -0.45; M -0.459; L -0.312; Y -0.741; H -0.927; R -0.526; T -0.796; N -0.991
S39: E 0.031; W -0.28; K 0.039; P -0.126; R 0.007; F -0.156; V -0.073; Y -0.094; A 0.005; D -0.04; T 0.003; G 0.019; Q -0.007; N 0.029; I 0.037; M 0.01
L42: D -0.393; A -0.324; F -0.158; N -0.405; M -0.215; Q -0.376; S -0.236; T -0.424; W -0.134; K -0.04; Y -0.481; I -0.171; E -0.281; P -0.117; G -0.275; R -0.224; V -0.264; H -0.184
G36: L -0.025; P -0.055; F -0.026; K -0.026; V -0.084; C -0.02; R 0.033; N -0.014; T 0.003; D 0.028; M -0.058; Q 0.039; A 0.067; I -0.078; S -0.02; E 0.107
D40: I -0.349; R -0.514; Y -0.212; H -0.118; V -0.339; E 0.044; C -0.209; W -0.155; K -0.352; P -0.102; S -0.127; T -0.121; A -0.158; N -0.133; F -0.251
G32: L -0.273; N -0.204; M -0.226; S -0.195; P -0.21; E -0.411; C -0.266; F -0.313; H -0.096; V -0.645; R -0.029; T -0.29; W -0.377; I -0.584; Q -0.138; D -0.311; Y -0.415; K -0.1; A -0.096
Q35: G -0.003; N -0.353; Y 0.015; W 0.064; D 0.066; S 0.034; V 0; K -0.016; E 0.124; H -0.024; I -0.116; M -0.033; P 0.121; F 0.044; T 0.01; L -0.003; A 0.039
V30: L -0.416; F -0.657; A -0.253; P 0.123; Y -0.038; G 0.111
V38: W 0.063; G -0.263; N -0.331; D -0.188; T 0.164; Y 0.027; K -0.161; F 0.048; I -0.022; L -0.026; A -0.215; S -0.086; H -0.308; M -0.147; C -0.096; R -0.22; E -0.282; Q -0.273; P -0.364
K46: F -0.227; L -0.07; I -0.184; C -0.369; E -0.013; M -0.15; A -0.075; G -0.315
S34: M -0.017; L -0.113; H -0.139; V -0.137; Q -0.125; D -0.046; F 0.008; P 0.101; T -0.196; R 0.02; W -0.059; A -0.01; G -0.132; K 0.017; C -0.09; Y -0.108; E -0.004
K29: W -0.273; N 0.365; H -0.121; E 0.039; L -0.516; A -0.258; R -0.05; D -0.202; V -0.195; T 0.027; M -0.254; C -0.148; Y -0.492; S -0.12; I -0.57; P -0.431; F -0.524; G -0.17
P45: A -0.233; E -0.526; S -0.063; D -0.456; I -0.147; Y -0.282; W -0.108; N -0.227; C -0.123; H -0.124; R -0.184; V -0.139; K -0.161; G -0.309; Q -0.461; L -0.202; F -0.161; T -0.224; M -0.269
S37: A 0.118; Y -0.173; Q 0.111; G -0.123; P -0.189; D 0.251; I -0.076; N -0.033; F -0.014; M -0.126; C 0.066; T -0.104; W -0.108; R -0.099; V -0.039; E 0.052
E28: Y -0.229; A -0.036; D -0.307; N -0.134; W -0.104; L -0.113; I -0.277; F -0.195; P -0.145; T -0.041; V -0.214; C -0.286; Q -0.127; K -0.106; R -0.026; H -0.197; G -0.072
